Laboratory results taken from patent publication US20230151068A1.

Target: biotinylated His-Avi-TEAD (194-411) (UniProt P28347)
Test: SPR, biotinylated TEAD immobilized on the chip, Siderocalin-YAP as analyte

Siderocalin-fused YAP (50-171), sequence (P80188 other isoform, or with tags, fused parts or gaps): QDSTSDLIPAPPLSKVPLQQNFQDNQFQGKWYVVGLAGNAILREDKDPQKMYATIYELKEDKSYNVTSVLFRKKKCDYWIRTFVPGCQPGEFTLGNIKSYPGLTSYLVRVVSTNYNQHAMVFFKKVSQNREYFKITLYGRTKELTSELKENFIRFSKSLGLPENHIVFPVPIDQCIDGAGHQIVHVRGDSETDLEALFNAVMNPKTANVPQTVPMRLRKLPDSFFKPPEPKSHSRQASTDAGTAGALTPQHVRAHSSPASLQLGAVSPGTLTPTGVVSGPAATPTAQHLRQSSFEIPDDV

Kd: 570 nM
Substance: Siderocalin-fused YAP (50-171) (from UniProt P80188 21-198; P46937 50-171)
